For 7 molecules, IC50 and ratio to parent results are on record in paper PMC6956818, “Activation of JNK and p38 MAPK Mediated by ZDHHC17 Drives Glioblastoma Multiforme Development and Malignant Progression” (Theranostics, 2020).

T1 sequence (Q8IUH5 whole entry): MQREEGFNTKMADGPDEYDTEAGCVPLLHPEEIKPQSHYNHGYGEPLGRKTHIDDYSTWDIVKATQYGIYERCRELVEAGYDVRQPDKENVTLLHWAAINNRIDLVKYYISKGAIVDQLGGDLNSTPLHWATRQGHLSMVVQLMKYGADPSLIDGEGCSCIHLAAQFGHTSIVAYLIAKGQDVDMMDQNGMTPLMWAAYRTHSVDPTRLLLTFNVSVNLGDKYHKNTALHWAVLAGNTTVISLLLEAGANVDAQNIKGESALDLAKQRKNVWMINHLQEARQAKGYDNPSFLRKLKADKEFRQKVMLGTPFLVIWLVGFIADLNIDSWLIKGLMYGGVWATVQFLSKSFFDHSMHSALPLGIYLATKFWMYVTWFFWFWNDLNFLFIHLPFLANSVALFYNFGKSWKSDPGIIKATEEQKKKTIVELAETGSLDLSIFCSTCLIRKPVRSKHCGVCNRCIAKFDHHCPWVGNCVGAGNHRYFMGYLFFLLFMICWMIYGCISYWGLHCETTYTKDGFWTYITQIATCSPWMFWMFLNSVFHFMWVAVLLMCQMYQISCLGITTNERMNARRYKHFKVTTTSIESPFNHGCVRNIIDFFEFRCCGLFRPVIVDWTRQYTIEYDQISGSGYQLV
T1 sequence (P45985 2-399 partner): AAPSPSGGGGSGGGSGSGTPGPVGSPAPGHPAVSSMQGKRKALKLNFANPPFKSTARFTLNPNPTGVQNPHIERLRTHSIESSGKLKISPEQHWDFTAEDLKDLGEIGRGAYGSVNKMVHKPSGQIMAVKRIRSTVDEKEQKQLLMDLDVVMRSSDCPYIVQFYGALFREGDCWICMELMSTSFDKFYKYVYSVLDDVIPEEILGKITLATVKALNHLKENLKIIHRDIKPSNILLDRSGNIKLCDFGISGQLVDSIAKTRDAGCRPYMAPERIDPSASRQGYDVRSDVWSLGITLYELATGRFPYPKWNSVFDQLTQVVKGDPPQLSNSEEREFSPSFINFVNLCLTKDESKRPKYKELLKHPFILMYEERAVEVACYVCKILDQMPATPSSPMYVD

One test concerns the target T1, ZDHHC17 (Homo sapiens, UniProt Q8IUH5).
T1 construct: purified ZDHHC17 (50 ng) with recombinant MAP2K4; with MAP2K4
In words: ex vivo kinase assay of ZDHHC17-activated MAP2K4 with JNK2 substrate (western blot); supported by co-IP disruption in U118MG cells and ZDHHC17 mutants; no direct binding measurement. It counts as biochemical.
Settings: not given
(In general: In western blotting, separated proteins are transferred to a membrane and probed.)
For the molecule `O=c1c(-c2ccc(O)cc2)coc2cc(O)cc(O)c12` [genistein], the IC50 is 800 nM.

The target in another test is Myc-tagged ZDHHC17 ANK (1-7). The test is described as follows: co-immunoprecipitation, quantified immunoblot. The note with it: HEK293 cell lysates; parent: est. 1.0; read off a plot.
On to “FLAG-tagged MAP2K4 protein kinase c (PKc) domain fragment E221G”, for which the ratio to parent is 0.85.
“FLAG-tagged MAP2K4 protein kinase c (PKc) domain fragment N222G”: the ratio to parent was found to be 0.35.
The same measure, in the same setting: the figure for “FLAG-tagged MAP2K4 protein kinase c (PKc) domain fragment R154G” is 0.73.
Turning to “FLAG-tagged MAP2K4 protein kinase c (PKc) domain fragment M153G”, the ratio to parent came to 0.5.
Still for that read-out and setting: the figure for “FLAG-tagged MAP2K4 protein kinase c (PKc) domain fragment S80G” is 0.83; for “FLAG-tagged MAP2K4 protein kinase c (PKc) domain fragment W95G” it is 0.47.

The term IC50 denotes the midpoint of a concentration-inhibition curve. Higher therefore signals weaker potency.
